Assay results taken from article PMC6178561.
Where two headings read alike, the source gives them in different places.

B1: Myc-Cdc37 (cell division cycle 37) (natural protein)
chain: MVDYSKWKNIEISDDEDDTHPNIDTPSLFRWRHQARVERMAEMDHEKDELKKKRQSYQARLMDVKERISKKDGDEEALKKELEKIEAEGKELDRIESEMIKKEKKTPWNVDTISKPGFEKTVINKKAGRKPDENLSEEEREQRMKQFVKENEKLCQQYGMLRKYDDSKRFLQEHLHLVGEETANYLVIWSINLEMEEKHELMAHVAHQCICMQYILELAKQLDVDPRACVSSFFSKIQHCHPEYRAQFDSEIEGFKGRIQKRAQEKIQEAIAQAEEEERKERLGPGGLDPADVFESLPDELKACFESRDVELLQKTIAAMPVDVAKLHMKRCVDSGLWVPNAADLEGDKKEEDDSDDVAGGEEKTDDAKSESAAKEEPIYTGVSTEDVD

How the values were obtained:
[1] = target: HA-InR^intra (intracellular domain of insulin receptor including the kinase domain) (Drosophila) (UniProt P09208); assay: proximity ligation
[2] = target: HA-InR^intra (intracellular domain of insulin receptor including the kinase domain) (Drosophila) (UniProt P09208); assay: proximity ligation; remark: listed apart in the source

Sequence of UniProt P09208 (P09208 1086-2144): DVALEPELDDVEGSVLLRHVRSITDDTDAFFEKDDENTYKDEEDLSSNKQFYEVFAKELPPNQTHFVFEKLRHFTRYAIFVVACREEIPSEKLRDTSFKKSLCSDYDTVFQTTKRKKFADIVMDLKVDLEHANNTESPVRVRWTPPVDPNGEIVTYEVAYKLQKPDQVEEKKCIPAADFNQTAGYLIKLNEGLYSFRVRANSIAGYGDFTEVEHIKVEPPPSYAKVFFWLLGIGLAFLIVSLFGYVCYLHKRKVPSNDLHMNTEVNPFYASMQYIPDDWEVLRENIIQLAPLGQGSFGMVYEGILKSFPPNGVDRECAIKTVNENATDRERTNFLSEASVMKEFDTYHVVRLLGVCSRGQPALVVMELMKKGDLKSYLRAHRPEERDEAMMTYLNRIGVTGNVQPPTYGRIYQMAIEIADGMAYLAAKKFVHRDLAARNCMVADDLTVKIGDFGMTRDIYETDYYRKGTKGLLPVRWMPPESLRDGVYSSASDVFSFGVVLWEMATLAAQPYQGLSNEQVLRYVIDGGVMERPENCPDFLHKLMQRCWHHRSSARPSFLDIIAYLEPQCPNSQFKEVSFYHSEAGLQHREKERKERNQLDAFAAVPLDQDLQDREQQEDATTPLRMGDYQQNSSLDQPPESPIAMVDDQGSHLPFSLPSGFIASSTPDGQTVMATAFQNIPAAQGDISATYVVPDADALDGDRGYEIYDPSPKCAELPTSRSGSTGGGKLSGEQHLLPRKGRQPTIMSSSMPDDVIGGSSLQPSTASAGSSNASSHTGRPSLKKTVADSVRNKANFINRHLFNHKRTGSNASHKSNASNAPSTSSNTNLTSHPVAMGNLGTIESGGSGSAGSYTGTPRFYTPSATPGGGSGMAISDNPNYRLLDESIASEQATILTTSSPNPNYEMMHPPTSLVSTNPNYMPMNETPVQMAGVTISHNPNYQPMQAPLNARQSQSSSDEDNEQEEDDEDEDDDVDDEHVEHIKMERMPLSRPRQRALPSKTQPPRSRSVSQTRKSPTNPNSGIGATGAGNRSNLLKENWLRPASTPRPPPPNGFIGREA

Molecule	PLA foci per cell (average) (PLA foci per cell) [1]	percent of cells with PLA signal [1] [%]	percent of cells with moderate PLA signals (11-30 foci) [1] [%]	percent of cells with strong PLA signals (>30 foci) [1] [%]	percent of cells with weak PLA signals (≤10 foci) [1] [%]	percent of cells with PLA signal [2] [%]	percent of cells with moderate PLA signals [2] [%]	percent of cells with strong PLA signals [2] [%]	percent of cells with weak PLA signals [2] [%]
Myc-Hsp83 (heat shock protein 83) (from UniProt P02828 1-717) (natural protein)	12.8	90.9	41.8	12.7	36.4				
B1						86.8	31.4	4.1	51.3
